Experimental data as given in US20130288983A1 (Amgen, published 2013).
Positions count from the first letter of the chain named. Names may count otherwise.

T1: Activin A (Homo sapiens (Human), UniProt P08476 311-426)
T1 sequence: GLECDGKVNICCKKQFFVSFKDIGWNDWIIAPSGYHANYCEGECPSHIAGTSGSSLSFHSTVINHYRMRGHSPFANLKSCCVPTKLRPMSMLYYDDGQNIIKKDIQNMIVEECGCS

B1: ActRIIB-IgG1 Fc E28C, linker GGGGS (Fc fusion)
chain: SGRGEAETRCCIYYNANWELERTNQSGLERCEGEQDKRLHCYASWRNSSGTIELVKKGCWLDDFNCYDRQECVATEENPQVYFCCCEGNFCNERFTHLPEAGGPEVTYEPPPTAPTGGGGSAPELLGGPSVFLFPPKPKDILMISRTPEVTCVVVDVSHEDPEVKFNWYVGGVEVHNAKTKPREEQYNSTYRVVSVLTVLHQDWLNGKEYKCKVSNKALPAPIEKTISKAKGQPREPQVYTLPPSRDELTKNQVSLTCLVKGFYPSDIAVEWESNGQPENNYKTTPPVLDSDGSFFLYSKLTVDKSRWQQGNVFSCSVMHEALHNHYTQKSLSLSPGK
notes: Tested from conditioned media
B2: ActRIIB-IgG1 Fc R40I, linker GGGGS (Fc fusion)
chain: B1 chain with C10E, R22I
notes: Tested from conditioned media
B3: ActRIIB-IgG1 Fc R40T, linker GGGGS (Fc fusion)
chain: B1 chain with C10E, R22T
notes: Tested from conditioned media
B4: ActRIIB-IgG1 Fc R40V, linker GGGGS (Fc fusion)
chain: B1 chain with C10E, R22V
notes: Tested from conditioned media
B5: ActRIIB-IgG1 Fc E28G, linker GGGGS (Fc fusion)
chain: B1 chain with C10G
notes: Tested from conditioned media
B6: ActRIIB-IgG1 Fc E28N, linker GGGGS (Fc fusion)
chain: B1 chain with C10N
notes: Tested from conditioned media
B7: ActRIIB-IgG1 Fc R40F, linker GGGGS (Fc fusion)
chain: B1 chain with C10E, R22F
notes: Tested from conditioned media
B8: ActRIIB-IgG1 Fc E28P, linker GGGGS (Fc fusion)
chain: B1 chain with C10P
notes: Tested from conditioned media
B9: ActRIIB-IgG1 Fc R40Y, linker GGGGS (Fc fusion)
chain: B1 chain with C10E, R22Y
notes: Tested from conditioned media
B10: ActRIIB-IgG1 Fc R40S, linker GGGGS (Fc fusion)
chain: B1 chain with C10E, R22S
notes: Tested from conditioned media
B11: ActRIIB-IgG1 Fc E28R, linker GGGGS (Fc fusion)
chain: B1 chain with C10R
notes: Tested from conditioned media
B12: ActRIIB-IgG1 Fc R40L, linker GGGGS (Fc fusion)
chain: B1 chain with C10E, R22L
notes: Tested from conditioned media
B13: ActRIIB-IgG1 Fc E28D, linker GGGGS (Fc fusion)
chain: B1 chain with C10D
notes: Tested from conditioned media
B14: ActRIIB-IgG1 Fc R40C, linker GGGGS (Fc fusion)
chain: B1 chain with C10E, R22C
notes: Tested from conditioned media
B15: ActRIIB-IgG1 Fc E28T, linker GGGGS (Fc fusion)
chain: B1 chain with C10T
notes: Tested from conditioned media
B16: ActRIIB-IgG1 Fc R40P, linker GGGGS (Fc fusion)
chain: B1 chain with C10E, R22P
notes: Tested from conditioned media
B17: ActRIIB-IgG1 Fc E28S, linker GGGGS (Fc fusion)
chain: B1 chain with C10S
notes: Tested from conditioned media
B18: ActRIIB5-IgG1 Fc wild type, no linker (Fc fusion)
chain: SGRGEAETRECIYYNANWELERTNQSGLERCEGEQDKRLHCYASWRNSSGTIELVKKGCWLDDFNCYDRQECVATEENPQVYFCCCEGNFCNERFTHLPEAGGPEGPWASTTIPSGGPEATAAAGDQGSGALWLCLEGPAHEAPELLGGPSVFLFPPKPKDILMISRTPEVTCVVVDVSHEDPEVKFNWYVGGVEVHNAKTKPREEQYNSTYRVVSVLTVLHQDWLNGKEYKCKVSNKALPAPIEKTISKAKGQPREPQVYTLPPSRDELTKNQVSLTCLVKGFYPSDIAVEWESNGQPENNYKTTPPVLDSDGSFFLYSKLTVDKSRWQQGNVFSCSVMHEALHNHYTQKSLSLSPGK
notes: Tested from conditioned media
B19: ActRIIB5-IgG1 Fc E28A, no linker (Fc fusion)
chain: B18 chain with E10A
notes: Tested from conditioned media
B20: ActRIIB5-IgG1 Fc R40A, linker GGGGS (Fc fusion)
chain: SGRGEAETRECIYYNANWELEATNQSGLERCEGEQDKRLHCYASWRNSSGTIELVKKGCWLDDFNCYDRQECVATEENPQVYFCCCEGNFCNERFTHLPEAGGPEGPWASTTIPSGGPEATAAAGDQGSGALWLCLEGPAHEGGGGSAPELLGGPSVFLFPPKPKDILMISRTPEVTCVVVDVSHEDPEVKFNWYVGGVEVHNAKTKPREEQYNSTYRVVSVLTVLHQDWLNGKEYKCKVSNKALPAPIEKTISKAKGQPREPQVYTLPPSRDELTKNQVSLTCLVKGFYPSDIAVEWESNGQPENNYKTTPPVLDSDGSFFLYSKLTVDKSRWQQGNVFSCSVMHEALHNHYTQKSLSLSPGK
notes: Tested from conditioned media
B21: ActRIIB5-IgG1 Fc E28A, linker GGGGS (Fc fusion)
chain: B20 chain with E10A, A22R
notes: Tested from conditioned media
B22: ActRIIB5-IgG1 Fc E28W R40A, linker GGGGS (Fc fusion)
chain: B20 chain with E10W
notes: Tested from conditioned media
B23: ActRIIB-IgG1 Fc E28A, linker 2(GGGGS) (Fc fusion)
chain: SGRGEAETRACIYYNANWELERTNQSGLERCEGEQDKRLHCYASWRNSSGTIELVKKGCWLDDFNCYDRQECVATEENPQVYFCCCEGNFCNERFTHLPEAGGPEVTYEPPPTAPTGGGGSGGGGSAPELLGGPSVFLFPPKPKDILMISRTPEVTCVVVDVSHEDPEVKFNWYVGGVEVHNAKTKPREEQYNSTYRVVSVLTVLHQDWLNGKEYKCKVSNKALPAPIEKTISKAKGQPREPQVYTLPPSRDELTKNQVSLTCLVKGFYPSDIAVEWESNGQPENNYKTTPPVLDSDGSFFLYSKLTVDKSRWQQGNVFSCSVMHEALHNHYTQKSLSLSPGK
notes: Tested from conditioned media
B24: ActRIIB-IgG1 Fc R40Q, linker GGGGS (Fc fusion)
chain: B1 chain with C10E, R22Q
notes: Tested from conditioned media
B25: ActRIIB-IgG1 Fc E28L, linker GGGGS (Fc fusion)
chain: B1 chain with C10L
notes: Tested from conditioned media
B26: ActRIIB-IgG1 Fc E28Y, linker GGGGS (Fc fusion)
chain: B1 chain with C10Y
notes: Tested from conditioned media
B27: ActRIIB-IgG1 Fc E28I, linker GGGGS (Fc fusion)
chain: B1 chain with C10I
notes: Tested from conditioned media
B28: ActRIIB-IgG1 Fc E28V, linker GGGGS (Fc fusion)
chain: B1 chain with C10V
notes: Tested from conditioned media
B29: ActRIIB-IgG1 Fc E28Q, linker GGGGS (Fc fusion)
chain: B1 chain with C10Q
notes: Tested from conditioned media
B30: ActRIIB-IgG1 Fc R40G, linker GGGGS (Fc fusion)
chain: B1 chain with C10E, R22G
notes: Tested from conditioned media
B31: ActRIIB-IgG1 Fc E28H, linker GGGGS (Fc fusion)
chain: B1 chain with C10H
notes: Tested from conditioned media
B32: ActRIIB-IgG1 Fc R40H, linker GGGGS (Fc fusion)
chain: B1 chain with C10E, R22H
notes: Tested from conditioned media
B33: ActRIIB-IgG1 Fc R40N, linker GGGGS (Fc fusion)
chain: B1 chain with C10E, R22N
notes: Tested from conditioned media
B34: ActRIIB-IgG1 Fc E28M, linker GGGGS (Fc fusion)
chain: B1 chain with C10M
notes: Tested from conditioned media
B35: ActRIIB-IgG1 Fc R40M, linker GGGGS (Fc fusion)
chain: B1 chain with C10E, R22M
notes: Tested from conditioned media
B36: ActRIIB-IgG1 Fc E28W, linker GGGGS (Fc fusion)
chain: B1 chain with C10W
notes: Tested from conditioned media
B37: ActRIIB-IgG1 Fc E28K, linker GGGGS (Fc fusion)
chain: B1 chain with C10K
notes: Tested from conditioned media
B38: ActRIIB-IgG1 Fc R40K, linker GGGGS (Fc fusion)
chain: B1 chain with C10E, R22K
notes: Tested from conditioned media
B39: ActRIIB-IgG1 Fc E28F, linker GGGGS (Fc fusion)
chain: B1 chain with C10F
notes: Tested from conditioned media

biological target: T1, Activin A; assay: Biacore SPR grade, COS transient conditioned media
Description: (§1) Qualitative BIAcore® Assay. E28 and R40 were substituted respectively with other natural amino acids in fusions with IgG1 Fc as described above. Each vActRIIB-IgG1Fc sample from conditioned media was captured on goat anti-human IgG1 Fc antibody (Jackson Immuno Research, cat#109-005-098, lot 63550) coated CMS surface. 20 nM of Activin A was injected over captured sample surfaces using BIACore2000 (BIACore Life Sciences, Piscataway, N.J.). The resulting sensorgrams were normalized to the captured RL (500 RU) of vActRIIB-IgG1Fc variants. The normalized binding response (RU) for some variants are shown in Table 2, and is further described below. Relative binding affinity for activin was also determined by Biacore measurements using conditioned media obtained from mammalian cell expression. Activin A (20 nM) was used to capture soluble receptor polypeptide in the conditioned media and measured SPR signals were normalized. Normalized SPR of +++++: >60, ++++:40-60, +++:20-40, ++:10-20, +: 5-10, −: <5.

Binder | normalized SPR signal [ru]
B1 | < 5
B2 | < 5
B3 | < 5
B4 | < 5
B5 | < 5
B6 | < 5
B7 | < 5
B8 | < 5
B9 | < 5
B10 | < 5
B11 | < 5
B12 | < 5
B13 | < 5
B14 | < 5
B15 | < 5
B16 | < 5
B17 | < 5

biological target: T1, Activin A; assay: Biacore SPR grade, CHO stable conditioned media, 20 nM activin A
Description: as §1

Binder | Normalized SPR [ru]
B18 | 20 to 40
B19 | 20 to 40
B20 | 20 to 40
B21 | 20 to 40
B22 | 40 to 60
B23 | 20 to 40

biological target: T1, Activin A; assay: Biacore SPR grade, COS transient conditioned media, 20 nM activin A
Description: as §1

Binder | normalized SPR signal [ru]
B24 | 5 to 10
B25 | 5 to 10
B26 | > 60
B27 | 10 to 20
B28 | 5 to 10
B29 | 5 to 10
B30 | 20 to 40
B31 | 5 to 10
B32 | 10 to 20
B33 | 10 to 20
B34 | 10 to 20
B35 | 5 to 10
B36 | > 60
B37 | 5 to 10
B38 | 10 to 20
B39 | 20 to 40
